Test results reported in article PMC7835222, “PRMT3 interacts with ALDH1A1 and regulates gene-expression by inhibiting retinoic acid signaling” (Communications Biology, 2021).

Biological target: T1, GST-tagged PRMT3 full-length protein (pGEX-PR-FL) (human, UniProt O60678-1 1-531)
T1 construct: Protein arginine methyltransferase 3 (PRMT3), human, full length; pGEX-6P2 vector; the legends mark a degraded GST-PRMT3 band beside the full-length one; also called GST-PRMT3; GST-PRMT3-FL
Assay: pull-down; 15 µg GST-PRMT3 (wild type or mutant) on Glutathione Sepharose, 15 µg His-tagged AL-FL in solution, with or without 200 µM SAM or SAH; 20 mM HEPES pH 7.5, 150 mM KCl, 0.2 mM DTT, 1 mM EDTA, 10% glycerol; 4 °C, 10 h; blot with His antibody
Conditions: both partners purified

T1 sequence (O60678 whole entry): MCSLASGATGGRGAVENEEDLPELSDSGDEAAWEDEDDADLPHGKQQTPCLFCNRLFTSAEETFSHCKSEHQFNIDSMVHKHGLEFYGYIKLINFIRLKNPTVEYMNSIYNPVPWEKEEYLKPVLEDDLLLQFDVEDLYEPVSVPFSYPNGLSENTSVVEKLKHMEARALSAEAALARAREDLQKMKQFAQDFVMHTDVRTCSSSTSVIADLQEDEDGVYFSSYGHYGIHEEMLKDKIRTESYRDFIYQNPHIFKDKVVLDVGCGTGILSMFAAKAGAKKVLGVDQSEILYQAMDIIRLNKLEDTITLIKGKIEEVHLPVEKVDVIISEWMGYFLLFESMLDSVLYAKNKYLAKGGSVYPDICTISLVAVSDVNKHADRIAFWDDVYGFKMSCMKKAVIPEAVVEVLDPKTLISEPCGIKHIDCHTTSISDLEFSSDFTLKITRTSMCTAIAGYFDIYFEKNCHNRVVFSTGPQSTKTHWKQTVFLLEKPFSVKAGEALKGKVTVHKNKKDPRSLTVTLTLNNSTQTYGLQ

B1: His-tagged ALDH1A1 full length (pET28a-AL-FL) (enzyme, human, UniProt P00352 1-501, looked up)
chain: MSSSGTPDLPVLLTDLKIQYTKIFINNEWHDSVSGKKFPVFNPATEEELCQVEEGDKEDVDKAVKAARQAFQIGSPWRTMDASERGRLLYKLADLIERDRLLLATMESMNGGKLYSNAYLNDLAGCIKTLRYCAGWADKIQGRTIPIDGNFFTYTRHEPIGVCGQIIPWNFPLVMLIWKIGPALSCGNTVVVKPAEQTPLTALHVASLIKEAGFPPGVVNIVPGYGPTAGAAISSHMDIDKVAFTGSTEVGKLIKEAAGKSNLKRVTLELGGKSPCIVLADADLDNAVEFAHHGVFYHQGQCCIAASRIFVEESIYDEFVRRSVERAKKYILGNPLTPGVTQGPQIDKEQYDKILDLIESGKKEGAKLECGGGPWGNKGYFVQPTVFSNVTDEMRIAKEEIFGPVQQIMKFKSLDDVIKRANNTFYGLSAGVFTKDIDKAITISSALQAGTVWVNCYGVVSAQCPFGGFKMSGNGRELGEYGFHEYTEVKTVTVKISQKNS
notes: Retinal dehydrogenase 1 (ALDH1A1), human, full length; pET28a vector; also called His-tagged AL-FL
B1: binds.
